Substitutions are numbered along the chain they refer to. Names may count otherwise. “Also recorded” adds a separate entry of the source. Like-named read-outs stand apart in the source and are kept apart here.
B1: A426D mutant L1Fc chimera (Fc fusion, UniProt P32004 20-1120, looked up)
chain: IQIPEEYEGHHVMEPPVITEQSPRRLVVFPTDDISLKCEASGKPEVQFRWTRDGVHFKPKEELGVTVYQSPHSGSFTITGNNSNFAQRFQGIYRCFASNKLGTAMSHEIRLMAEGAPKWPKETVKPVEVEEGESVVLPCNPPPSAEPLRIYWMNSKILHIKQDERVTMGQNGNLYFANVLTSDNHSDYICHAHFPGTRTIIQKEPIDLRVKATNSMIDRKPRLLFPTNSSSHLVALQGQPLVLECIAEGFPTPTIKWLRPSGPMPADRVTYQNHNKTLQLLKVGEEDDGEYRCLAENSLGSARHAYYVTVEAAPYWLHKPQSHLYGPGETARLDCQVQGRPQPEVTWRINGIPVEELAKDQKYRIQRGALILSNVQPSDTMVTQCEARNRHGLLLANAYIYVVQLPDKILTADNQTYMAVQGSTAYLLCKAFGAPVPSVQWLDEDGTTVLQDERFFPYANGTLGIRDLQANDTGRYFCLAANDQNNVTIMANLKVKDATQITQGPRSTIEKKGSRVTFTCQASFDPSLQPSITWRGDGRDLQELGDSDKYFIEDGRLVIHSLDYSDQGNYSCVASTELDVVESRAQLLVVGSPGPVPRLVLSDLHLLTQSQVRVSWSPAEDHNAPIEKYDIEFEDKEMAPEKWYSLGKVPGNQTSTTLKLSPYVHYTFRVTAINKYGPGEPSPVSETVVTPEAAPEKNPVDVKGEGNETTNMVITWKPLRWMDWNAPQVQYRVQWRPQGTRGPWQEQIVSDPFLVVSNTSTFVPYEIKVQAVNSQGKGPEPQVTIGYSGEDYPQAIPELEGIEILNSSAVLVKWRPVDLAQVKGHLRGYNVTYWREGSQRKHSKRHIHKDHVVVPANTTSVILSGLRPYSSYHLEVQAFNGRGSGPASEFTFSTPEGVPGHPEALHLECQSNTSLLLRWQPPLSHNGVLTGYVLSYHPLDEGGKGQLSFNLRDPELRTHNLTDLSPHLRYRFQLQATTKEGPGEAIVREGGTMALSGISDFGNISATAGENYSVVSWVPKEGQCNFRFHILFKALGEEKGGASLSPQYVSYNQSSYTQWDLQPDTDYEIHLFKERMFRHQMAVKTNGTGRVRLPPAGFATE
notes: not shown: immunoglobulin Fc, human
B2: L120V: L1Fc chimera with missense mutation L120V in Ig domain 1 (protein)
chain: B1 chain with L101V, D407A
modifications: left off: a dimerising Fc or GST
B3: G121S: L1Fc chimera with missense mutation G121S in Ig domain 1 (protein)
chain: B1 chain with G102S, D407A
modifications: left off: a dimerising Fc or GST
B4: H210Q mutant L1Fc chimera (Fc fusion, UniProt P32004 20-1120, looked up)
chain: B1 chain with H191Q, D407A
notes: as for B1

Legend:
[1] = target: T1, wild-type L1Fc chimeric protein (human, UniProt P32004 20-1120); test: two-color FACS bead aggregation, mutant L1Fc beads with wild-type L1Fc beads, mixed aggregates at 30 min
T1 construct: Produced in COS-7 cells, purified on protein A-Sepharose; in the two-color assay it was held on anti-human IgG coated beads; also called soluble L1; wt; not shown: immunoglobulin Fc, human (cross-linked with anti-human Fc antibodies)

[2] = tested on: L1; settings: mutant bound to itself; cited from earlier work
[3] = target: T2, full length human L1 (Homo sapiens, UniProt P32004); test: Binding of L1Fc chimeras to COS cells expressing wild-type L1 (immunofluorescence)
T2 construct: transiently transfected with expression vectors encoding full length human L1; expressed in transfected cells; host or cells: COS7
T2 sequence (P32004 20-1257): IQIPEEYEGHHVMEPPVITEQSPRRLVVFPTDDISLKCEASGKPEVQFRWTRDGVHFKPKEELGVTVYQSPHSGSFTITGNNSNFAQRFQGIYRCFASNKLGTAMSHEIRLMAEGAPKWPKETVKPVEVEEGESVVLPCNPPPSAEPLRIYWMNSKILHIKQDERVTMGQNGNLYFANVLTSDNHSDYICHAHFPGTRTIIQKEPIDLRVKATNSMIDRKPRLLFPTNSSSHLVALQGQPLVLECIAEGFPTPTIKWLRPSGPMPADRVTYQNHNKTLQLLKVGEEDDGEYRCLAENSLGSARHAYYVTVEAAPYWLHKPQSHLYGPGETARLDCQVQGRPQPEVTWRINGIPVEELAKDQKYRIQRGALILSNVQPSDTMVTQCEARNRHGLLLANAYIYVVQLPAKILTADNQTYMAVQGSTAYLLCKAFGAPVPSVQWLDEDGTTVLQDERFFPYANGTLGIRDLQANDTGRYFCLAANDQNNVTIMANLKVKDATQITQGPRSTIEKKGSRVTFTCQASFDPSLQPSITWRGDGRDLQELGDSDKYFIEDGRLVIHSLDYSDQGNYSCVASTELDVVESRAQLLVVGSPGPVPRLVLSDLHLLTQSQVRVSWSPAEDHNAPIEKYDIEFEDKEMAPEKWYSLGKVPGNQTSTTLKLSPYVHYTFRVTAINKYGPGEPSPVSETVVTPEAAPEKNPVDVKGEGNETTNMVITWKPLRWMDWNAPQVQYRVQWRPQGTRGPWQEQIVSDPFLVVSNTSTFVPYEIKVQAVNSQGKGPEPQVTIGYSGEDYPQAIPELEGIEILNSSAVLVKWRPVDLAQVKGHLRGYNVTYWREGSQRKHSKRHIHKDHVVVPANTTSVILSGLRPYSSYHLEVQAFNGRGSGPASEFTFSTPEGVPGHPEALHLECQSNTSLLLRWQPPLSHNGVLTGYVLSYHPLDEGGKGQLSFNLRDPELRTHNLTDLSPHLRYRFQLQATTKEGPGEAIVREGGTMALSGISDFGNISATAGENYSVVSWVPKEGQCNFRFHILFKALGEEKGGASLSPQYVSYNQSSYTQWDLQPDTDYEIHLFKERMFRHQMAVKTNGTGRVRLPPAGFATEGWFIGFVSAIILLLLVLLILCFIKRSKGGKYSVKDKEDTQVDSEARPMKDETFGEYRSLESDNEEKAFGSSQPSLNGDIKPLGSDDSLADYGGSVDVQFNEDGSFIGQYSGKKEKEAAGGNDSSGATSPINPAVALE
Procedure: (§1) The mutant L1Fc chimeras were produced and purified as described previously (De Angelis et al., 1999). Briefly, COS-7 cells were transiently transfected with 10 μg DNA per 150 mm culture dish, the soluble Fc chimeric protein was allowed to accumulate in the media for 6 days and was recovered and purified by protein A-Sepharose affinity chromatography. In the binding experiments, L1Fcs were cross-linked to anti-human Fc antibodies (50 μg/ml, Jackson Immunoresearch) for 1 hr at 37° C. Binding detection to NP-1 requested concentrations of L1Fcs 10 folds higher than L1. Antibody conjugated L1-Fc protein was then incubated with monolayers of COS7 cells transiently transfected with expression vectors encoding full length human L1 or myc-tagged NP-1 where the cytoplasmic domain is deleted (gift of J. Raper, 2000 and Renzi et al., 1999). Following incubation, the cells were fixed with 4% PFA, and processed for double-immunofluorescence detection. NP-1 was detected using a mouse anti-c myc antibody (clone 9E10, Sigma) and L1 using a rat monoclonal anti-L1 antibody. Secondary antibody anti-c-myc (Texas-red conjugated anti-mouse antibodies) was used to detect NP-1, anti-L1 (Texas red conjugated anti-rat antibodies) to detect L1, and anti-Fc (FITC conjugated anti-rabbit antibodies) to detect bound L1Fc chimeras. After secondary antibody incubation, the cells were washed with PBS and mounted in Mowiol (Calbiochem).
Thus, Ig CAMs F3 and TAG-1 (the rodent homologue of axonin-1) ate unlikely to be axonal receptors for L1Fc in the reversion process. […] In the present study however, mutated L1Fc proteins were required to interact with wild-type L1 expressed on growth cones. To formally exclude a role for homophilic binding of L1 in the initiation of the reversion process, it was therefore necessary to examine whether homophilic binding of the mutated L1Fc chimeras to wild-type L1 was also disrupted. Mutated L1Fcs were therefore incubated with COS7 cells transfected with full-length wild-type L1 cDNA and binding was assessed by immunofluorescence. In parallel, homophilic binding of mutant/mutant and mutant/wild-type L1Fcs was compared in a two-color FACS aggregation assay, allowing a quantitative assessment to be made (see Methods). […] Similarly, in the two color FACS assay homophilic binding was restored to 74.4% and 90.5% of wild-type levels for A426D and H210Q respectively (FIG. 2B). […] This mutation however still promoted the L1 Fc induced switching of Sema3A repulsion to attraction in the co-culture assay. Thus, the ability of L1Fc to switch Sema3A repulsion is not dependent on homophilic binding. Consequently, the trans interaction of L1Fc with L1 in the receptor complex is not required for the change in growth cone responsiveness to Sema3A.

[4] = tested on: F3, axonin-1 and TAX-1; settings: F3, axonin-1 (and TAX-1 where stated); cited from earlier work
[5] = tested on: wild-type L1; test: Two-color FACS aggregation assay (homophilic binding); settings: mixed aggregates at the 30-minute time-point; mutant/wild-type
Chain of wild-type L1 (P32004 with tags, fused parts or gaps limits assumed): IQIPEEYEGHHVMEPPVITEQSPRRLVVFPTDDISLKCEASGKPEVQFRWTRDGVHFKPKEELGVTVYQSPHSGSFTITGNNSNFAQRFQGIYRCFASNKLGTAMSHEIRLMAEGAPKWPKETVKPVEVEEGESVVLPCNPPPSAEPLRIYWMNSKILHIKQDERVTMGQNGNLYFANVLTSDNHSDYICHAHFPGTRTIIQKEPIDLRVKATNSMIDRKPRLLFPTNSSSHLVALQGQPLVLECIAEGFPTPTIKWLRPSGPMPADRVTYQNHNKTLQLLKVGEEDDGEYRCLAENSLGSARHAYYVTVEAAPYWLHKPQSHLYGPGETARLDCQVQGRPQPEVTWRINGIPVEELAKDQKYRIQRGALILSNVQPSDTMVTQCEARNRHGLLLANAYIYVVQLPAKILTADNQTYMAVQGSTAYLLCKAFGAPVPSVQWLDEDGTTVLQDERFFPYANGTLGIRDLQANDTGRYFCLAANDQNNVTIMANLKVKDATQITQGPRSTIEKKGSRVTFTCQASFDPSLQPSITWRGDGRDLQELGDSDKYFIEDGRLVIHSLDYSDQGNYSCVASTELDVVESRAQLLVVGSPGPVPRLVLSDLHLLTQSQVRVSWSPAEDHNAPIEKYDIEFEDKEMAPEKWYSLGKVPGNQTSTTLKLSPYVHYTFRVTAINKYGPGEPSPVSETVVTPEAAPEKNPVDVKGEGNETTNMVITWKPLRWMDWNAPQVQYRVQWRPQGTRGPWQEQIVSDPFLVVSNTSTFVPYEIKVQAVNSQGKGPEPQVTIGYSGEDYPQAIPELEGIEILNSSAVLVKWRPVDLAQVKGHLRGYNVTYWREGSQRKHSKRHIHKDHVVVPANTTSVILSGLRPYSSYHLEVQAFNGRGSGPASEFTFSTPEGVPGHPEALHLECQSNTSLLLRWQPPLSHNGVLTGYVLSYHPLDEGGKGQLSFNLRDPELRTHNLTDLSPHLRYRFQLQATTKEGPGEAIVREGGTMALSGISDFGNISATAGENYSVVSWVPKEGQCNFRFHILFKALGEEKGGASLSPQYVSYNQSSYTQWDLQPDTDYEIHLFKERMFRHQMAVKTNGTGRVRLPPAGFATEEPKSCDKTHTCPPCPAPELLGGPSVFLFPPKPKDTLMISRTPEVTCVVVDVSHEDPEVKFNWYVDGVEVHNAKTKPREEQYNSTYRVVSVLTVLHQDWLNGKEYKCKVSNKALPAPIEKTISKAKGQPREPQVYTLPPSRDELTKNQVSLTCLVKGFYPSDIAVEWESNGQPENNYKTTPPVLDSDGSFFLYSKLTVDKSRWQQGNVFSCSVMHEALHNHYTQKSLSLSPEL
Procedure: A two-color aggregation assay was developed, modified from the homophilic binding assay described by De Angelis et al. (1999). For the two-color assay, red and green fluorescent microsphere beads (0.6 um, Duke Scientific Corps.) were coated with anti-human IgG antibody (Fc specific; Sigma, 1-2136). 2.5 μg of wild type (red beads) or mutant (green beads) L1Fc-proteins were conjugated to 10 μl of antibody-coated beads by incubating for 2 hrs at 37° C. Excess unbound protein was removed by washing with PBS/5% FCS. For each mutant, a 1:1 mixture of wild-type L1 and mutant L1 coated beads was prepared, dissaggregated to produce a single bead suspension and allowed to form mixed aggregates at 37° C. with samples removed in duplicate over a 30-minute time course. Samples were diluted 1:5000 into ice cold PBS and the proportion of 2 colour aggregates was assessed using a fluorescence activated cell sorter (Becton Dickenson FACSort). Ten thousand particles were counted per sample and categorised as red only (WT-L1: WT-L1), green only (Mutant L1: Mutant L1) or mixed aggregates. Every mutant protein was assayed at least 3 separate times and standardised to a wild-type control conducted in parallel.

[6] = tested on: cortical axons repelled by Sema3A secreted from the ventral spinal cord; test: Co-culture of cortical slices and ventral spinal cord explants (axon guidance response to Sema3A); type: cell-based, mice; settings: for switching of Sema3A repulsion to attraction by L1Fc chimera: chimera 3 μg/ml in culture medium
Procedure: Blocks of cortex were dissected from P0 (postnatal day 0) to P2 mice and cut into 250 μm thick slices with a McIlwain tissue chopper. The ventral part of the cervical spinal cord was dissected and cut into 250 μm thick slices. Co-culture of cortical slices and ventral spinal cord explants were performed in a three-dimensional plasma clot, as described previously (Castellani et al., 2000). Cortical slices were oriented in the plasma clot as indicated in FIG. 1B to give to axons equivalent chances to be deflected away or towards the spinal cord explant. Purified wild-type or mutant L1Fc chimeras were added to the culture medium (3 μg/ml). Inhibitors of the guanylyl cyclase (ODQ, 10^−5 M, Sigma) and NOS (7NI, […], Sigma) were added to the culture medium, either alone or with wild-type L1Fc (3 μg/ml). After one or two days in vitro (DIV), the cultures were fixed with 4% paraformaldehyde (PFA) and analyzed by phase contrast microscopy (Axiovert 35-M, Zeiss). A qualitative guidance index was attributed to the co-cultures, to assess the degree of repulsive (negative values) or attractive (positive values) effects (Castellani et al., 2000). The index ranged from −2 (when most fibers grew away from the spinal cord explant) to +2 (when most fibers grew towards the explant), with intermediate situations (index of −1 and +1 for moderate guidance effects). An index of zero was attributed to the cultures showing no preferential growth. Quantitative analysis of axon length and number of axons growing from cortical slices was performed as described previously (Castellani et al., 2000). A proximal and a distal region, each of them covering a 600 μm-piece of cortical tissue were determined for each culture. All fibers extending from these two regions were counted and the length of the three longest fibers was measured, using computer analysis software (Visiolab 2000, Biocom). Immunofluorescence labeling of axons was performed using the mouse anti-phosphorylated neurofilament antibody SMI31 (Stemberger and Meyer Inc.), and Texas red-conjugated secondary anti-mouse antibody (see result obtained for number of axons and axonal length in the following tables 1 and 2).
It has been previously developed an assay system using explants of ventral spinal cord co-cultured with cortical axons in order to determine the factors involved in axonal repulsion and attraction (Castellani et al., 2000). Using this system we have shown that Sema3A secreted from the ventral spinal cord repels cortical axons. In the presence of soluble wild-type L1Fc chimeric protein however, repulsion is switched to attraction (Castellani et al., […]). In the present study, we aimed to identify the L1 interactions underlying the switching process. As Ig domains have been implicated in binding of Ig CAMs to many of their ligands (Brümmendorf and Rathjen, 1996) we hypothesized that they would also be required for L1 Fc-mediated switching. […] L1 Fc chimeras containing pathological missense mutations affecting specific Ig domains (De Angelis et al., 1999 and FIGS. 1A, 1B) were assessed for their ability to reverse Sema3A repulsion to attraction.

[7] = tested on: NP-1; test: Binding of L1Fc chimeras to NP-1 expressing COS7 cells (immunofluorescence)
Procedure: as §1
Next, we examined the ability of the mutant L1 Fc chimeras to bind NP-1. COS7 cells were transfected with a vector encoding the extracellular and transmembrane domains of NP-1 fused to a myc tag (ANP-1, Renzi et al., J. Neurosci., 15:7870-7880, 1999), and incubated with the mutant L1Fc chimeras. Binding was detected by immunofluorescence. […] Binding of L120V, G121S and A426D L1Fcs to NP-1 is illustrated in FIG. 3.

Row | Molecule | homophilic binding, percent of wild-type levels [1] | effect of mutation on homophilic binding [2] | binding to wild-type L1 expressed in COS cells [3] | effect of mutation on heterophilic binding [4] | homophilic binding to wild-type L1, percent of wild-type levels [5] | switching of Sema3A repulsion to attraction by L1Fc chimera [6] | guidance index ([6]; qualitative index from −2 (repulsion) to +2 (attraction), L1Fc chimeras 3 μg/ml, ODQ 10^−5M) | binding to NP-1 expressing cells [7] | binding to NP-1 expressing cells ([7]; listed as L120V-L1Fc)
1 | B1 | 74.4 % of wild-type levels | – | – | – | – | – | – | – | –
2 | B2 | – | does not affect | bound to wild-type L1 | does not affect | 100% | unable to switch the repulsive activity of Sema3A to attraction; also recorded: abrogated the reversal of Sema3A repulsion to attraction; also recorded: failed to reverse Sema3A effect | −1.3 | did not | did not bind NP-1
3 | B3 | – | reduce homophilic binding | did not; also recorded: almost abolished homophilic binding to wild-type L1 | reduce | extremely low; also recorded: almost abolished homophilic binding to wild-type L1 | able to reverse Sema3A repulsion to attraction; also recorded: efficiently induce switching of Sema3A repulsion to attraction; also recorded: switched Sema3A from repulsion to attraction to the same extent as wild type L1Fc | – | bound to NP-1 expressing cells | –
4 | B4 | 90.5 % of wild-type levels | – | – | – | – | – | – | – | –

From US20060058504A1, “Peptides capable of inducing attraction to the axonal growth and their use for treating neurodegenerative diseases” (Centre National de la Recherche Scientific (CNRS), priority 2002, published 2006)
